# US20210017281A1 (IMMUNEXT, published 2021)
# Substitutions are numbered along the chain they refer to.
# B1: VSTB59 (antibody, V domains shown)
# VH: QVQLVQSGAEVKKPGASVKVSCKASGYTFTDYWMHWVRQAPGQGLEWMGAIETSLNYPSYNQKFKGRVTMTRDTSTSTVYMELSSLRSEDTAVYYCARWGIYGNPWFAYWGRGTLVTVSS
# VL: DIVMTQTPLSLSVTPGQPASISCRASESVDSYVNSFVHWYLQKPGQPPQLLIYRASNLESGVPDRFSGSGSGTDFTLKISRVEAEDVGVYYCQQSNEDPYTFGQGTKLEIKR
# B2: VSTB65 (antibody, V domains shown)
# VH: QVQLVQSGAEVKKPGASVKVSCKASGYTFTSYWIHWVRQAPGQGLEWMGEINPSNGLTNYNEKFRNRVTMTRDTSTSTVYMELSSLRSEDTAVYYCARSYDYDGDYYAMDYWGQGTLVTVSS
# VL: DIVMTQSPLSLPVTPGEPASISCRSTQSIVHSNGNTYLEWYLQKPGQSPQLLIYKVSNRFSGVPDRFSGSGSGTDFTLKISRVEAEDVGVYYCFQASHVPWTFGQGTKLEIKR
# B3: VSTB70 (antibody, V domains shown)
# VH: EVQLVQSGAEVKKPGATVKISCKVSGYTFSNYWIEWVQQAPGKGLEWMGEILPGSGNVHYNEKFKGRVTITADTSTDTAYMELSSLRSEDTAVYYCATPPHYYGYDYYDVNYWGQGTLVTVSS
# VL: DVVMTQSPLSLPVTLGQPASISCKSSQSLLDSDGKTYLNWFQQRPGQSPRRLIYLVSELDSGVPDRFSGSGSGTDFTLKISRVEAEDVGVYYCWQGTHFPQTFGQGTKLEIKR
# B4: VSTB81 (antibody, V domains shown)
# VH: QVTLKESGPALVKPTQTLTLTCTFSGFSLSTSGMGVSWIRQPPGKALEWLAHIYWDDDKRYNPSLKSRLTISKDTSKNQVVLTMTNMDPVDTATYYCARRPDYFGSSYVDWGQGTTVTVSS
# VL: B1 VL with S31T, V33G, V37M, R54L, E59D, S60F, S95N, Y100W
# B5: INX908 | VSTB92 (antibody, V domains shown)
# VH: QVQLVQSGAEVKKPGASVKVSCKASGYTFANYLIGWVRQAPGQRLEWMGDIYPGGGFISYNEKFKGRVTITRDTSASTAYMELSSLRSEDTAVYYCARRFDYGGYFFDYWGQGTLVTVSS
# VL: DIVMTQSPLSLPVTPGEPASISCRSSQSIVHSNGNIYLEWYLQKPGQSPQLLIYKVSNRFSGVPDRFSGSGSGTDFTLKISRVEAEDVGVYYCFQGSHVPWTFGQGTKLEIK
# notes: INX name = the VSTB variable regions with human IgG2 constant regions; also called INX908 parental
# B6: VSTB60 (antibody, V domains shown)
# VH: QVQLVQSGSELKKPGASVKVSCKASGYTFTNYGMTWVRQAPGQGLEWMGWINTYTGESTYADDFKGRFVFSLDTSVSTAYLQICSLKAEDTAVYYCARDYYGIYVSAYWGQGTLVTVSS
# VL: B1 VL with S31N, V33A, V37M, P47S, N96H
# B7: VSTB78 (antibody, V domains shown)
# VH: QVQLVQSGAEVKKPGASVKVSCKASGYTFTNYWMHWVRQAPGQGLEWMGYINPSSGYTEYNQKFKDRVTMTRDTSTSTVYMELSSLRSEDTAVYYCARDGGSVLFGYWGQGTTVTVSS
# VL: DIVMTQSPDSLAVSLGERATINCKSSQSLLNSGIRKNYLAWYQQKPGQPPKLLIYSASTRESGVPDRFSGSGSGTDFTLTISSLQAEDVAVYYCKQSYNLYTFGQGTKLEIKR
# B8: VSTB74 (antibody, V domains shown)
# VH: QMQLVQSGPEVKKPGTSVKVSCKASGYIFTDYNIDWVRQARGQRLEWIGDINPKYDSTRYNQKFKGRVTITRDMSTSTAYMELSSLRSEDTAVYYCAADGSSAMDYWGQGTTVTVSS
# VL: DIVMTQSPDSLAVSLGERATINCKSSQSLLNSGHQKNYLAWYQQKPGQPPKLLIYGASTRESGVPDRFSGSGSGTDFTLTISSLQAEDVAVYYCQNDHRYPLTFGQGTKLEIKR
# B9: INX900 | VSTB50 (antibody, V domains shown)
# VH: B6 VH with M34L, T35N, T53P, S58P, D99E, Y100G, I103N, V105I, S106F, A107P
# VL: DIVMTQTPLSLSVTPGQPASISCRASESVDTYANSLMHWYLQKPGQPPQLLIYRASNLESGVPDRFSGSGSGTDFTLKISRVEAEDVGVYYCQQTNEDPRTFGQGTKLEIK
# notes: INX name = the VSTB variable regions with human IgG2 constant regions
# B10: INX901 | VSTB56 (antibody, V domains shown)
# VH: QVQLVQSGAEVKKPGASVKVSCKASGYTFTSYWLHWVRQAPGQGLEWMGYIIPNTLHTDYNQKFKDRVTMTRDTSTSTVYMELSSLRSEDTAVYYCARLDGDYDYALDYWGQGTLVTVSS
# VL: DIVMTQTPLSLSVTPGQPASISCRASESVEYYGTSFMQWYLQKPGQPPQLLIYTASNVESGVPDRFSGSGSGTDFTLKISRVEAEDVGVYYCQQSRKVPYTFGQGTKLEIK
# notes: INX name = the VSTB variable regions with native human IgG2 constant regions; also called INX901 parental
# B11: INX902 | VSTB63 (antibody, V domains shown)
# VH: QVQLQESGPGLVKPSETLSLTCAVSGFSITSDFAWNWIRQPPGKGLEWIGYITYSGFTNYNPSLESRVTISVDTSKNQFSLKLSSVTAADTAVYYCARQEYGNYVWYFDVWGQGTLVTVSS
# VL: B10 VL with F36L, M37L, T54A, Y100W
# notes: as for B9
# B12: INX906 | VSTB54 (antibody, V domains shown)
# VH: QVQLVQSGAEVKKPGASVKVSCKASGYNIKDTYMHWVRQAPGQGLEWMGRIDPTHGYVIYDPKFQGRVTMTRDTSTSTVYMELSSLRSEDTAVYYCARDRFDPYWFLDVWGQGTLVTVSS
# VL: B10 VL with F36L, P47S, T54D, S56F, Y100W
# notes: as for B9
# B13: INX907 | VSTB66 (antibody, V domains shown)
# VH: QVQLVQSGAEVKKPGASVKVSCKASGYPFTGYFMHWVRQAPGQGLEWMGRINPYNGGTVYNQNFNDRVTMTRDTSTSTVYMELSSLRSEDTAVYYCARWTFDGLFMDYWGQGTTVTVSS
# VL: DVVMTQSPLSLPVTLGQPASISCRASENVDKYGISFMNWFQQRPGQSPRRLIYATSNQGSGVPDRFSGSGSGTDFTLKISRVEAEDVGVYYCQQSKEDPYTFGQGTKLEIK
# notes: as for B9
# Target: T1, human VISTA (human, UniProt Q9H7M9 33-194, limits assumed)
# T1 construct: The ELISA text says only recombinant VISTA; also called recombinant VISTA
# Experiment: method not stated (Table 1, column Kd, M)
row,Binder,Kd [nM]
1,B1,0.106
2,B2,1.08
3,B3,2.23
4,B4,0.312
5,B5,0.0934
6,B6,0.356
7,B7,1.13
8,B8,0.562
9,B9,0.632
10,B10,0.0235
11,B11,0.83
12,B12,0.0253
13,B13,0.0806
